Data reported in US20230313187A1, “MODIFICATIONS OF MAMMALIAN CELLS USING ARTIFICIAL MICRO-RNA TO ALTER THEIR PROPERTIES AND THE COMPOSITIONS OF THEIR PRODUCTS” (DNA TWOPOINTO INC., priority 2020, published 2023).

How the values were obtained:
Assay type in all cases: cell-based
[1] = test system: Cricetulus griseus alpha-(1,6)-fucosyl transferase (FUT8) mRNA; test: CHO pool with amiRNA as host for transient production of afucosylated antibodies; details: 7-day transient culture; amiRNA linked to EF1 promoter; FIG. 5B
Source text: The multi-hairpin amiRNA with nucleotide sequence SEQ ID NO: 194 comprised three hairpins with guides complementary to the mRNA for Cricetulus griseus alpha-(1,6)-fucosyl transferase (FUT8), as described in Section 6.1.1.1. The multi-hairpin amiRNA sequence was placed to the 3′ of an open reading frame encoding a red fluorescent protein (with nucleotide sequence SEQ ID NO: 279) and followed by a rabbit globin polyadenylation sequence. The multi-hairpin amiRNA gene was cloned into a Bombyx transposon vector in which it was operably linked to an EF1 promoter (with nucleotide sequence SEQ ID NO: 314). […] It further comprised an open reading frame encoding puromycin selectable marker with polypeptide sequence SEQ ID NO: 302. […]
(§1) Transposons were co-transfected with mRNA encoding transposase with polypeptide sequence SEQ ID NO: 502 into a CHO cell line expressing no heterologous antibody sequences. […] Protein was purified from the culture supernatant using protein A affinity chromatography, reduced with dithiothreitol, and analyzed on an Agilent QTOF mass spectrometer. […]

[2] = test system: Cricetulus griseus alpha-(1,6)-fucosyl transferase (FUT8) mRNA; test: Antibody titer and fucosylation with different numbers of amiRNA hairpins in the 3' UTR of the glutamine synthetase selectable marker
Source text: One- two- or three-hairpin amiRNAs were incorporated into the 3′ UTR of a glutamine synthetase selectable marker on a transposon. The multi-hairpin amiRNA with nucleotide sequence SEQ ID NO: 194 comprised three hairpins as described in Section 6.1.1.1.
These amiRNA sequences were placed to the 3′ of an open reading frame encoding a glutamine synthetase protein (with polypeptide sequence SEQ ID NO: 307) and followed by a human globin polyadenylation sequence. The amiRNA genes were cloned into a transposon vector in which they were operably linked to a Pol II promoter. The transposon further comprised genes encoding an antibody with mature light chain polypeptide sequence SEQ ID NO: 286 and mature heavy chain polypeptide sequence SEQ ID NO: 288. The transposon further comprised a left end comprising a 5′-TTAA-3′ target sequence immediately followed by an ITR with nucleotide sequence SEQ ID NO: 423 (which is an embodiment of SEQ ID NO: 421) and additional nucleotide sequence SEQ ID NO: 417 and a right end comprising nucleotide sequence SEQ ID NO: 419 immediately followed by an ITR with nucleotide sequence SEQ ID NO: 424 (which is an embodiment of SEQ ID NO: 422) immediately followed by a 5′-TTAA-3′ target sequence. The transposon was configured so that the multi-hairpin amiRNA, the glutamine synthetase gene and the genes for both antibody chains, as well as all necessary operably linked control elements were transposable by a corresponding transposase.
Transposons were co-transfected with mRNA encoding transposase with polypeptide sequence SEQ ID NO: 472 into a CHO cell line with no functional glutamine synthetase gene. The pool of transfected cells were grown in the absence of glutamine added to the media until their viability reached 95%. They were then grown in a 14 day fed-batch using Sigma Advanced Fed Batch media. Protein was purified from the culture supernatant using protein A affinity chromatography, reduced with dithiothreitol, and analyzed on an Agilent QTOF mass spectrometer. We integrated the area under the peaks at 50,456 Da (corresponding to the heavy chain modified by G0: the conserved heptasaccharide core composed of 2 N-acetylglucosamine, 3 mannose and 2 other N-acetylglucosamine residues that are β-1,2 linked to α-6 mannose and α-3 mannose, forming two arms) and 50,602 (corresponding to the heavy chain modified by G0F: the conserved heptasaccharide core plus a fucose residue) to calculate the relative proportion of fucosylated and afucosylated antibody.
Table 5. Inhibition of antibody fucosylation with different numbers of amiRNA hairpins. Transposons were constructed as described in Section 6.1.2.1. The SEQ ID NO of the amiRNA gene including the glutamine synthetase ORF and the globin polyA sequence is given in column A. The Pol II promoter shown in column B was operably linked to the amiRNA whose SEQ ID NO is shown in column C. The amiRNA comprised the number of hairpins shown in column D. Following a 14-day fed batch antibody production run, the culture supernatant contained the concentration of antibody shown in column E. The percentage of antibody that was afucosylated is shown in column F, the percentage that was fucosylated is shown in column G. BDL=below detection limit.

[3] = test system: Cricetulus griseus alpha-(1,6)-fucosyl transferase (FUT8) mRNA; test: Antibody titer and fucosylation with multi-hairpin amiRNA in the GS 3' UTR driven by different promoters and inhibitory 5' UTRs; details: 14 day fed-batch
Source text: The three-hairpin amiRNA with nucleotide sequence SEQ ID NO: 194 was incorporated into the 3′ UTR of a glutamine synthetase selectable marker on a transposon. The amiRNA sequence was placed to the 3′ of an open reading frame encoding a glutamine synthetase protein with polypeptide sequence SEQ ID NO: 307 and was followed by a human globin polyadenylation sequence. The amiRNA gene was cloned into different transposon vectors in which it was operably linked to different Pol II promoters. Each transposon further comprised genes encoding an antibody with mature light chain polypeptide sequence SEQ ID NO: 286 and mature heavy chain polypeptide sequence SEQ ID NO: 288. […]
as §1, with “472” for “502”, “with” for “expressing”, “functional glutamine synthetase gene.” for “heterologous antibody sequences.”

[4] = test system: Cricetulus griseus Neu2 mRNA; test: Sialylation of an Fc fusion protein from CHO cells with Neu2-targeting amiRNA (capillary isoelectric focusing); details: 14 day fed-batch; Fc fusion to a growth factor receptor; FIG. 6B vs reference standard
Source text: The multi-hairpin amiRNA was cloned into a piggyBac-like transposon to the 3′ of a spacer polynucleotide with nucleotide sequence SEQ ID NO: 280, and operably linked to a PGK promoter with nucleotide sequence SEQ ID NO: 385. The nucleotide sequence of the multi-hairpin amiRNA gene is given as SEQ ID NO: 593. The piggyBac-like transposon further comprised a selectable marker conferring resistance to puromycin with amino acid sequence SEQ ID NO: 302. The piggyBac-like transposon further comprised a target sequence 5′-TTAA-3′ immediately followed by an ITR with nucleotide sequence SEQ ID NO: 427, immediately followed by further transposon end sequences with nucleotide sequence SEQ ID NO: 425. The piggyBac-like transposon further comprised nucleotide sequence SEQ ID NO: 426, immediately followed by a second ITR with nucleotide sequence SEQ ID NO: 428, immediately followed by the target sequence 5′-TTAA-3′. […]
After the transfected cell pools had recovered to >95% viability, we tested their ability to produce sialylated protein. […] Protein was purified from the culture supernatant using protein A affinity chromatography, reduced with dithiothreitol, and analyzed by capillary isoelectric focusing (cIEF). […]

Molecule | antibody fucosylation (G0F peak) [1] | fucosylation of the antibody ([2]; CMV and EEF2 promoter operably linked to the amiRNA) | antibody titer in the culture supernatant ([2]; CMV promoter) | antibody titer in the culture supernatant ([2]; EEF2 promoter) | antibody titer ([2]; weaker (PGK) promoter operably linked to glutamine synthetase, amiRNA in 3' UTR) | antibody fucosylation ([2]; weaker (PGK) promoter, amiRNA in GS 3' UTR, natural level around 80-85%) | antibody fucosylation [3] | antibody titer [3] | sialylation of the produced protein (cIEF glycoform peaks) [4]
SEQ ID NO: 194: three-hairpin amiRNA, guides SEQ ID NOs 23, 24, 25 to Cricetulus griseus FUT8 mRNA, unstructured sequences between hairpins (nucleic acid) ATCTGATCTTCTGAAGAAAATATATTTCTTTTTATTCATAGCTCTTAACTAGTGGTGATAGCAATGTCAGCAGTGCCTGGAAAAACATCCATTCTCATTCGTGAAGCCACAGATGGAATGAGAATAGATGTTTTTCAAAGTAAGGTTGACCATACTCTACTCTAGTTATATTCTTTAGGCACGAATGTGTGTTTAAAAAAAATAAAAACTAGTGGTGATAGCAATGTCAGCAGTGCCTTTAAATTACATAATGTGGCAGTGTGAAGCCACAGATGACTGCCACATCATGTAATTTACAAGTAAGGTTGACCATACTCTACTCTAGAGTTGTGTTTTAATGTATATTAATGTTACTAATGTGTTTACTAGTGGTGATAGCAATGTCAGCAGTGCCTTATTTTACTGTGCATGGGCTTGGTGAAGCCACAGATGCAAGCCCATGAACAGTAAAATCAAGTAAGGTTGACCATACTCTACTCTAGTCAGTTTTATTGATAGTCTTTTCAGTATTATTGATAATCTT | produced only afucosylated antibodies | completely eliminated fucosylation of the antibody | 163 mg/L | 443 mg/L | 835 mg/L | completely prevented | completely suppressed | exceeded 3 g/L | 
SEQ ID NO: 568: three-hairpin amiRNA, guides SEQ ID NOs 92, 91, 90 complementary to Cricetulus griseus Neu2 mRNA (nucleic acid) ATCTGATCTTCTGAAGAAAATATATTTCTTTTTATTCATAGCTCTTAACTAGTGGTGATAGCAATGTCAGCAGTGCCTATGAAGTCTATGAAGAGTCAGGGTGAAGCCACAGATGCCTGACTCTTAATAGACTTCACAAGTAAGGTTGACCATACTCTACTCTAGAGTTGTGTTTTAATGTATATTAATGTTACTAATGTGTTTACTAGTGGTGATAGCAATGTCAGCAGTGCCTTACAAGTTTACTCACTACCTGGGTGAAGCCACAGATGCCAGGTAGTGCGTAAACTTGTCAAGTAAGGTTGACCATACTCTACTCTAGGTTATTTTTAGTATGATTCTGTAAAAATGAATTAATACTAACTAGTGGTGATAGCAATGTCAGCAGTGCCTTAATTTATTAAGACTCATCCAAGTGAAGCCACAGATGTTGGATGAGTATTAATAAATTCAAGTAAGGTTGACCATACTCTACTCTAGTCAGTTTTATTGATAGTCTTTTCAGTATTATTGATAATCTT |  |  |  |  |  |  |  |  | substantially reduces the removal of sialic acid from proteins produced by CHO cells
